Measurements published in paper PMC9374677 (2022).

Biological target: T1, MBP-TNFR1^ECD deletion mutant ΔCRD1 (human, UniProt P19438 22-211)
T1 chain: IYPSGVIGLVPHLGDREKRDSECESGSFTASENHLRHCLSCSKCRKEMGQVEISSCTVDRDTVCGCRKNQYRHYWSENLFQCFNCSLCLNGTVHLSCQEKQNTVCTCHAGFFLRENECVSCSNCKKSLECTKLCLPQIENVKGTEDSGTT
Assay: ITC

B1: Staphylococcal superantigen-like protein 10 (SSL10), residues 31-227, C-terminal 6xHis (natural protein)
chain: KQNQKSVNKHDKEALYRYYTGKTMEMKNISALKHGKNNLRFKFRGIKIQVLLPGNDKSKFQQRSYEGLDVFFVQEKRDKHDIFYTVGGVIQNNKTSGVVSAPILNISKEKGEDAFVKGYPYYIKKEKITLKELDYKLRKHLIEKYGLYKTISKDGRVKISLKDGSFYNLDLRSKLKFKYMGEVIESKQIKDIEVNLK
Work on B1 yielded a Kd of 11.1 µM.
